Results published in patent US20130078247A1.

Target: cynomolgus Ang2 (cynomolgus)
Experiment: competition ELISA: cAng2 binding to cTie2

B1: 00050 (VHH)
VHH: EVQLVESGGGLVQPGGSLRLSCAASGFTFDDYALGWFRQAPGKEREGVSCIRCSDGSTYYADSVKGRFTISSDNSKNTVYLQMNSLRPEDTAVYYCAASIVPRSKLEPYEYDAWGQGTLVTVSS
  IC50 (read off the curve): 10 nM
